Measured values from the RNAGym collection of RNA variant scans (doi:10.1073/pnas.2313332121).

B1: TPR t1 (parent)
chain: GACCAAUCUGCCCUCAGAGCUCGAGAACAUCUUCGGAUGCAGAGGAGGCAGGCUUCGGUGGCGCGAUAGCGCCAACGUCCUCAACCUCCAAUGCAUCCCACCACAUGAUGAUGCCUGAAGAGCCUUGGUUUUUUG

Variants of: B1
Test: polymerase ribozyme fitness, log enrichment relative to wild type (log ratio); higher = more active; in vitro selection for triplet polymerase activity
Method in brief: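 Mutant libraries of each subunit of a heterodimeric triplet polymerase ribozyme were built by PCR and transcribed. Each library went through one round of in vitro selection in triplicate: annealing with biotinylated primer, partner subunit and triplets, frozen incubation at −7 °C, gel excision of extended constructs, streptavidin-bead capture and RT-PCR. Input and output libraries were Illumina-sequenced; only genotypes with ≥10 input reads and ≥1 read per output were kept. Fitness is log2(genotype enrichment/wild-type enrichment), using inverse-variance-weighted replicate averages.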

Variant	polymerase ribozyme fitness (log ratio)
GACCAAUCUGCCCUCAGAGCUCGAGAACAUCUUCGGAUGCUGAGGAGGCAGACUUCGGUGGUGCGAUAGCGCCAACGUCCUCAACCUCCAAUGCAUCCCACCACAUGAUGAUGCCUUAAGAGCCUUGGUUUUUUG	-5.18
GACCAAUCUGCCCUCAGAGCUCGAGAACAUCUUCGGAUGCUGAGGAGGCAGGAUUCGGUGGCGCGAUAGCGCCAACGUCCUCAACCUCCAAUGCAUCCCACCACAUGAUGAUGCAUGAAGAGCCUUGGUUUUUUG	-1.03
GACCAAUCUGCCCUCAGAGCUCGAGAACAUCUUCGGAUGCUGAGGAGGCAGGGUUCGGUGGGGCGAUAGCGCCAACGUCCUCAUCCUCCAAUGCAUCCCACCACAUGAUGAAGCCUGAAGAGCCUUGGUUUUUUG	-4.47
GACCAAUCUGCCCUCAGAGCUCGAGAACAUCUUCGGAUGCUGAGGAGGCAGGUUUCGGUGGCGCGAUAGCGCAAACGUCCUCAACCUCCAAUGCAUCCCACCACAUGAUGAUGCCUGAAUAGCCUUGGUUUUUUG	-2.14
GACCAAUCUGCCCUCAGAGCUCGAGAACAUCUUCGGAUGCUGAGGAGGCAGCCUUCGGUGGCGCGAUAGCGCCAACGUCCUCAACCUCCAAUGCAUCCCACCACAUGAUGAUGCCUGAAGAGCUUUGGUUCUUUU	-1.81
GACCAAUCUGCCCUCAGAGCUCGAGAACAUCUUCGGAUGCUGAGGAGGCAGGCUUCUGUGGCGCGAUAGCGCCAACGUCCUCAACGUCCAAUGCAUCCCACCACAUGAUGAUGCCUGAAGAGUCUUGGUUUUUUG	-4.13
GACCAAUCUGCCCUCAGAGCUCGAGAACAUCUUCGGAUGCUGAGCAGGCAGGCUUCGGUAGUGCGAUAGCGCCAACGUCCUCAACCUCCAAUGCAUCCCACCACAUGAUGAUGCCUGAAGAGCCUUGGUUUUUUG	-2.39
GACCAAUCUGCCCUCAGAGCUCGAGAACAUCUUCGGAUGCUGUGGAGGCAGGCUUCGGUGGCGCGAUACCGCCAACCUCCUCAACCUCCAAUACAUCCCACCACAUGAUGAUGCCUGAAGAGCGUUGGUUAUUUG	-1.81
GACCAAUCUGCCCUCAGAGCUCGAGAACAUCUUCGGAUGCUGAGGAGGCAGGCUUCGGUGGCGCGAUAGCGCGAACGUCCUCAACCUCCCAUGCAUCCCACCACAUGAUGAUGUCUGAAGAGCCUUGAUUUUUUG	-5.13
GACCAAUCUGCCCUCAGAGCUCGAGAACAUCUUCGGAUGCUGAGGAGGCAGGCUUCGGUGGCGUGAUAGCGCCAACGUCCUCAACCCCCAAUGCAUCCCACCACACGAUGAUGCCUGAAGAGACUUGGUUUUUUG	-1.38
GACCAAUCUGCCCUCAGAGCUCGAGAACAUCUUCGGAUGCUGAGGAGGCAGGCUUAGGUGGCGCGAUAGCGUCAACGUCCUCAACCUCCAAGGCAUCCCACCACAUGAUGAUGCCUGAAGAGCCUUGGUUUUUUG	-1.3
GACCAAUCUGCCCUCAGAGCUCGAGAACAUCUUCGGAUGCUGAGGAGGCAGGCUUCGGUUGCGCGAUAGCGCCAACGUCCUCAACCUCCAAUGCAUCCCACCACAUGAUGAUGCCUGAAGAGCCUUGGUUUUUUG	-1.91
GACCAAUCUGCCCUCAGAGCUCGAGAACAUCUUCGGAUGCGGAGGAGGCAGGCUUCGGUGGCGCGAUAGCGCCAACGUCCUCAACCUCCAAUGCAUCCCACCACAUGAUGAUGCCUUAAGAGCCUUGGUUUUUUG	-2.99
GACCAAUCUGCCCUCAGAGCUCGAGAACAUCUUCGGAUGCUGAGAAGGCAGGCUCCGGUGGCGCGAUAGCACCAACGUCCUCAACCUCCAAUGCAUCCCACCACAUGAUGAUGCCUGAAGAGCCUUGGUUUUUUG	-3
GACCAAUCUGCCCUCAGAGCUCGAGAACAUCUUCGGAUGCUGAGGAGGCAGGCUUCGGUGGCUCGAUAGCGCCAACGUCCUCAACCUCCAAUGCAUCCCACCACAUGAUGAUGCCUGAAGAGCCUUGGUUUUUUG	-2.33
GACCAAUCUGCCCUCAGAGCUCGAGAACAUCUUCGGAUGCUGAGGAGGCAGGCUUCGGUUGCGCGAUAGCGCCAACGACCUCAACCUCCAAUGCGUCCCACCACAUGAUGAUGCCUGAAGAGCCUAGGUUUUUUG	-4.53
GACCAAUCUGCCCUCAGAGCUCGAGAACAUCUUCGGAUGCUGAGGAGGCAGGCUUCGGUGGCGCGAUAGCGCCAACGUCCUCAACCUCCAAUGCAUCCCACCACAUGAUGAUGCUUGAAGAGCCUUAGUUUUUUG	-3.9
GACCAAUCUGCCCUCAGAGCUCGAGAACAUCUUCGGAUGCUGAGGAGGCAGGCUUCGGUGGCGCGAUGGCGCCAACGUCCUCAACCUCCAAUGCAUCCCACCACAUGAUGAUGCCUGAAGAGCCUUGGUUUUUUG	-5.2
GACCAAUCUGCCCUCAGAGCUCGAGAACAUCUUCGGAUGCUGAGGAGGCAGGCUUCGGUGGCACGAUAGCGCCAACGUCCUCAACGUCCAAUGCAUCCCAUCACAUGAUGAUGCCUGAAGAGCCUUGGUUUUUUG	-4.01
GACCAAUCUGCCCUCAGAGCUCGAGAACAUCUUCGGAUGCUGAGGAGGCAGGCUUUGGUGGCGCGAUAGCGCCAACGGCCUCAACCUCCAAUGCAUCCCACCACAUGAUGAUGCCUGAAGAGCCUUGGUUUUUUG	-1.47
GACCAAUCUGCCCUCAGAGCUCGAGAACAUCUUCGGAUGCUGAGGAGGCAGGCUUCGGUGGCGUGAUAGCGCUAACGUCCUCAACCUCCAAUGCAUCCCACCACACGAUGAUGCCUGAAGAGCCUUGGUUUUUUG	-1.79

Variant	polymerase ribozyme fitness (log ratio)
GACCAAUCUGCCCUCAGAGCUCGAGAACAUCUUCGGAUGCUGAGGAGGCAGGCUUCAGUGGCGCGAUAGCGCCAACAUCCUCAACCUCCAAUGCAUCCCACCACAUGAUGAUGCCUGAAGAGCCUUGGUUUUUUG	-1.68
GACCAAUCUGCCCUCAGAGCUCGAGAACAUCUUCGGAUGCUGAGGAGGCAGGGUUCGGUGGGGCGAUAGCGCCAACGUCCUCAACCUCCAAUGCAUCCCACCACAUGAUGAUCCCUGAAGAGCCUUGGUUUUUUG	-6.56
GACCAAUCUGCCCUCAGAGCUCGAGAACAUCUUCGGAUGCGGAGGAGGCAGGCUUCGGUGGCGCGAUAGCGCCAACGUCCUCAACCUCCAAUGCAUCCCACCACAUGAUGAUACCUGAAGAGCAUUGGUUUUUUG	-0.366
GACCAAUCUGCCCUCAGAGCUCGAGAACAUCUUCGGAUGCUGAGGAGGCAGGCUUCGGUGACGCGAUAGCGCCAACGUCCUCAACCUCCAAUGCAUCCCACCACAUGAUGAUGCCUGAAGAGCCUUGGUUUUUUG	-1.07
GACCAAUCUGCCCUCAGAGCUCGAGAACAUCUUCGGAUGCUGAGGAGGCAGGCUUCGGUGGCGCGAUAGCGCCAACGUCCUCAACCUCUAAUGCAUCCCACCACAUGAUGAUGCCUGAAGAGACUUGGUUUUUUG	-1.59
GACCAAUCUGCCCUCAGAGCUCGAGAACAUCUUCGGAUGCUGAGGAGGCAGGCUUCUGUGGCGCGAUAGCGCCAACGUCCUCAACCUCCAAUGCAUCCCACCACAUGAUGAUGCCUGAAGAGCCUUGGUUUUUUG	-1.23
GACCAAUCUGCCCUCAGAGCUCGAGAACAUCUUCGGAUGCUGAGGAGGCAGGCUUCGGUGGCGCGAUAGCGCCAACGUCCUCAUCCUACAAUGCAUCCCACCACAUGAUGAUGCCUGAAGAGCCUUGGUUUUUUG	-3.83
GACCAAUCUGCCCUCAGAGCUCGAGAACAUCUUCGGAUGCUGAGGAGGCAGGCUUCGGUGGCGCGAUAGCGCCAACGUCCUCAACCUCCAAUGCAUCCUACCACAUGAUGAUGCCUGAAGAGCUUUGGUUUUUUG	-5.19
GACCAAUCUGCCCUCAGAGCUCGAGAACAUCUUCGGAUGCUGAGGAGUCAGGCUUCGGUGGCGCGAUAGCGCCAAAGUCCUCAACCUCCAAUGCAUCCCACCACAUGAUGAUGCCUGAAGAGCCUUGGUUUUUUG	-1.72
GACCAAUCUGCCCUCAGAGCUCGAGAACAUCUUCGGAUGCUGAGGAGGCAGGCUUCGGUGGCGCGAUAGCGCCAACGUCCUCAACCUCCAAUGCAUCCCACCACAUGAUGAUGCCUGAAGAGCCUUGGUUUUUUG	-1.14
GACCAAUCUGCCCUCAGAGCUCGAGAACAUCUUCGGAUGCUGAGCAGGCAGGGUUCGGUGGCGCGAUAGCGCCAACGUUCUCAACCUCCAAUGCAUUCCACCACAUGAUGAUGCCUGAAGAGCCUUGGUUUUUUG	-6.18
GACCAAUCUGCCCUCAGAGCUCGAGAACAUCUUCGGAUGCUGAGGAGGCAGGCUUCGGUGGCGCGAUAGCGCCAACGUCCUCAACCUCUAAUGCAUCCCACCACAUGAUGAUGCCUGAAGAGCCUUGGUUUUUUG	-1.32
GACCAAUCUGCCCUCAGAGCUCGAGAACAUCUUCGGAUGCUCAGGAGGCAGGCUUCGGUGGCGCGAUAGCGCCAACGUCCUCAACCUCCAAUGCCUCCCACCACAUGAUGAUGCCUGAAGAGCCUUGGUUUUUUG	-4.1
GACCAAUCUGCCCUCAGAGCUCGAGAACAUCUUCGGAUGCUGAGGAGGCAGACUUCGGCGGCGCGAUAGCGCCAACGUCCUCAACCUCCAAUGCAUCCCACCACAUGGUGAUGGCUGAAGAGCCGUGGUUUUUUG	-5.99
GACCAAUCUGCCCUCAGAGCUCGAGAACAUCUUCGGAUGCUGAGGAGGCAGGCUUCGGUGGCGCGAUAGCGCCAACGUCCUCAACCUCCAAUGCAUCCCACCACAUGAUGAUGCCUGAAGAGCGUUGGAUUUUUG	-0.389
GACCAAUCUGCCCUCAGAGCUCGAGAACAUCUUCGGAUGCUGAGGAGGCAGGCUUCGGUGGCGCGAUAGUGCCAACGUCCUCAUCCUCCAAUGCAUCCCACCACAUGAUGAUGCCCGAAGAGCUUUGGUAUUUUG	-5.57
GACCAAUCUGCCCUCAGAGCUCGAGAACAUCUUCGGAUGCUGAGGAGGCAGGCUUCGGUGGCGCGAUAGCGCCAACGUCCUCAACCUCCAAUGCAUCCCACCACAUGAUGAUGCCUGAAGAGGCUUGGUUUUUUG	0.0535
GACCAAUCUGCCCUCAGAGCUCGAGAACAUCUUCGGAUGCUGAGGAGGCAGGCUUCGGUGGCGCGAUAGCGCCAACGUCCUCAACCUCCAAUGCAUCUCACCACAUGAUGAUGCCUGAAGAGCCUUGGUUUUUUG	-2.83
GACCAAUCUGCCCUCAGAGCUCGAGAACAUCUUCGGAUGCUGAGGAGGCAGGCUUCGGUGACGCGAUAGCGCCAACGUCCUCAACCUCCAAUGCAUCCCACAACAUGAUGAUGCCUGAAGAGCCUUGGUUUUGUG	-3.96
GACCAAUCUGCCCUCAGAGCUCGAGAACAUCUUCGGAUGCUGAGGAGGCAGGCUUCGGUGGCGCGAUAGCGCCAACGUCCUCAACCUCCAAUGCAUCCCACCACCUGAUGAUGCCUGAAGAGCCUUGGUUUUUUG	-5.02
GACCAAUCUGCCCUCAGAGCUCGAGAACAUCUUCGGAUGCUGAGGAGGCAGGCUUCGGUGGCGCGAUAGAGCCAACGGCCUCAACCUCCAAUGCAUCCCACCACAUGAUGAUGCCUGAAGAGUCUUGGUUUUUUG	-3.32
